Laboratory results reported in patent US20250320294A1.

B1: anti-CD45 antibody clone 027 (antibody, V domains shown)
VH: QVQLQQSAPELARPGASVRMSCKASGYTFTTYTMNWLTQRPGQGLEWIGYINPSSGYTEYNQKFKDKTSLTADTSSSTAYMQLSSLTSEHSAVYYCARASGYSSWFAYWGQGTLVTVSA
VL: NIVMTQTPKFLLVSAGDRVTITCKASQSVNNDVGWYQQKPGQSPKLLIYYASNRYTGVPDRFTGSGYGTDFTFTISTVQAEDLAVYFCQQDYNSPLTFGAGTKLELK
B2: anti-CD45 antibody clone 031 (antibody, V domains shown)
VH: DVQLVESGGGLVQPGGSRKLSCAASGFTFSSFGMHWVRQAPEKGLEWVAYINSGSTTFYYADTVKGRFTISRDNPKNTLFLQMTSLGSEDTAMYYCARSATATWTMDYWGQGTSVTVSS
VL: NIMMTQSPSSLAVSAGEKVTMSCKSSQSVFVSSNQKNYLAWYQQKPGQSPKLLIYWASTRESAVPDRFTGSGSGTDFTLTIGSVQAEDLAVYYCHQYLSSWTFGGGTKLEIK
B3: anti-CD45 antibody clone 028 (antibody, V domains shown)
VH: QVQLQQSGAELARPGASVKMSCKASGYTFTFYAILWVKQMPGQGLEWIGFINPSSGYTSYNQKFKDKATLTADKSSSTAYMQLSSLTSEDSAVYYCARDYGLDYWGQGTTLAVSS
VL: DIVMTQAAPSVPVTPGESVSISCRSSKSLLHSNGNTYLYWFLQRPGQSPQLLIYRMSNLASGVPDRFSGSGSGTAFTLGISRVEAGDVGVYYCMQHLEYPFTFGSGTKLEIK
B4: anti-CD45 antibody clone 042 (antibody, V domains shown)
VH: EVQLQQSGAELVKPGASVKLSCTASGFNIKDTFMHWVKLRPEQGLEWIGRIDPANGYTKYDPRFQGKATIIADTSSNTAYLQLSSLTSEDTAVYYCASGEYYALDYWGQGTSVTVSS
VL: DIVLTQSPASLTVSLGQRATISCRASKSVSTSGYSYMHWYQQKPGQPPKLLIYLASNLESGVPARFSGSGSGTDFTLNIHPVEEEDAATYYCQHNRELPYTFGGGTKLEIK

Assays:
[1] = target: human-CD45RO-ECD-His (human) (UniProt P08575); experiment: SPR, captured human-CD45RO-ECD-His, 1:1 binding
[2] = target: human-CD45RO-ECD-His (human) (UniProt P08575); experiment: ELISA, human-CD45RO-ECD-His-coated plates
[3] = target: human-CD45RO-ECD-His (human) (UniProt P08575); experiment: SPR, captured human-CD45RO-ECD-His, 1:1 binding; row label printed 'Clone 023' a second time, taken as clone 028 by the order in paragraph 382

Binder	Kd [1] [nM]	koff [1] [s⁻¹]	kon [1] [M⁻¹ s⁻¹]	EC50 [2] [nM]	Kd [3] [nM]	koff [3] [s⁻¹]	kon [3] [M⁻¹ s⁻¹]
B1	3.72	0.000282	75800	0.0734			
B2	79.5	0.000335	4220	0.139			
B3				0.0319	39.9	0.000591	14800
B4				0.144			
